Measured values taken from the Immune Epitope Database (IEDB).

Tests used:
HLA-B*44:02 = assay: IEDB peptide-MHC binding, purified MHC/competitive/radioactivity; filed as Kd, often an IC50 or EC50 that approximates it; ≥ and ≤ were set here for values at or beyond the usual limits of such assays
HLA-B*44:03 = assay: as above; settings: source organism: Dengue virus 4 Philippines/H241/1956
HLA-A*01:01 = assay: as above
HLA-A*24:02 = assay: as above
HLA-A*29:02 = assay: as above
HLA-A*23:01 = assay: as above
HLA-A*26:01 = assay: as above
HLA-A*30:02 = assay: as above
HLA-A*11:01 [1] = assay: IEDB peptide-MHC binding, purified MHC/direct/fluorescence; filed as Kd, often an IC50 or EC50 that approximates it; ≥ and ≤ were set here for values at or beyond the usual limits of such assays
HLA-A*03:01 [2] = assay: as above
HLA-A*03:01 [3] = assay: IEDB peptide-MHC binding, purified MHC/competitive/radioactivity; filed as Kd, often an IC50 or EC50 that approximates it; ≥ and ≤ were set here for values at or beyond the usual limits of such assays; settings: source organism: Vaccinia virus WR
HLA-A*11:01 [4] = assay: as above; settings: source organism: Vaccinia virus WR
HLA-A*31:01 = assay: as above; settings: source organism: Vaccinia virus WR
HLA-A*33:01 = assay: as above; settings: source organism: Vaccinia virus WR
HLA-A*68:01 = assay: as above; settings: source organism: Vaccinia virus WR
HLA-A*02:06 = assay: as above
HLA-B*15:01 = assay: IEDB peptide-MHC binding, purified MHC/direct/fluorescence; filed as Kd, often an IC50 or EC50 that approximates it; ≥ and ≤ were set here for values at or beyond the usual limits of such assays; settings: source organism: Bacillus licheniformis
HLA-B*07:02 = assay: as above; settings: source organism: Human immunodeficiency virus 1
[5] = source organism: Dengue virus 4 Philippines/H241/1956
[6] = source organism: Dengue virus 3 Martinique/1243/1999
[7] = source organism: SARS coronavirus Tor2
[8] = source organism: Lymphocytic choriomeningitis virus (strain Armstrong)
[9] = source organism: Influenza A virus (A/Wilson-Smith/1933(H1N1))
[10] = source organism: Dengue virus 1 Nauru/West Pac/1974
[11] = source organism: Dengue virus 1 Brazil/97-11/1997
[12] = source organism: Dengue virus 2 Jamaica/1409/1983
[13] = source organism: Vaccinia virus WR
[14] = source organism: Bacillus licheniformis
[15] = source organism: Mammarenavirus guanaritoense
[16] = source organism: Lassa virus Josiah

Sequence: AEIQPQWIAA
- Kd (HLA-B*44:02; [5]): 67.2 nM
- Kd (HLA-B*44:03): 1120 nM

Sequence: AEITPQAST
- Kd (HLA-B*44:02; [6]): 16.5 nM

Sequence: AMVRMYIFF
- Kd (HLA-A*01:01; [7]): 18700 nM
- Kd (HLA-A*24:02; [7]): 4460 nM
- Kd (HLA-A*29:02; [7]): 452 nM
- Kd (HLA-A*23:01; [7]): 214 nM
- Kd (HLA-A*26:01; [7]): 7440 nM
- Kd (HLA-A*30:02; [7]): ≥ 71100 nM

Sequence: ASFYYIWKSY
- Kd (HLA-A*01:01; [7]): 3110 nM
- Kd (HLA-A*24:02; [7]): ≥ 28600 nM
- Kd (HLA-A*29:02; [7]): 71.4 nM
- Kd (HLA-A*23:01; [7]): ≥ 32100 nM
- Kd (HLA-A*26:01; [7]): 2100 nM
- Kd (HLA-A*30:02; [7]): 0.481 nM

Sequence: CGRGGWSYY
- Kd (HLA-A*30:02; [6]): 253 nM

Sequence: CTFLLNKEMY
- Kd (HLA-A*01:01; [7]): 793 nM
- Kd (HLA-A*24:02; [7]): ≥ 70300 nM
- Kd (HLA-A*29:02; [7]): 789 nM
- Kd (HLA-A*23:01; [7]): ≥ 70000 nM
- Kd (HLA-A*26:01; [7]): 9380 nM
- Kd (HLA-A*30:02; [7]): 412 nM

Sequence: CWLVTNGSYL
- Kd (HLA-A*24:02; [8]): 841 nM
- Kd (HLA-A*29:02; [8]): 2890 nM
- Kd (HLA-A*23:01; [8]): 138 nM

Sequence: DQHGRMNYYW
- Kd (HLA-A*01:01; [9]): ≥ 70400 nM
- Kd (HLA-A*24:02; [9]): 1470 nM
- Kd (HLA-A*29:02; [9]): 2170 nM
- Kd (HLA-A*23:01; [9]): 1110 nM
- Kd (HLA-A*26:01; [9]): 661 nM
- Kd (HLA-A*30:02; [9]): ≥ 69800 nM

Sequence: DTSEVHWNY
- Kd (HLA-A*01:01; [5]): 111 nM
- Kd (HLA-A*26:01; [5]): 41.6 nM
- Kd (HLA-A*30:02; [5]): 3860 nM

Sequence: EAEPPFGESY
- Kd (HLA-A*01:01; [10]): 1360 nM
- Kd (HLA-A*26:01; [10]): 669 nM

Sequence: EFSSNVANY
- Kd (HLA-A*01:01; [7]): 11200 nM
- Kd (HLA-A*24:02; [7]): ≥ 32200 nM
- Kd (HLA-A*29:02; [7]): 703 nM
- Kd (HLA-A*23:01; [7]): ≥ 77800 nM
- Kd (HLA-A*26:01; [7]): 2900 nM
- Kd (HLA-A*30:02; [7]): 828 nM

Sequence: EISSMLNIM
- Kd (HLA-A*26:01; [11]): 657 nM

Sequence: ELPETMETLL
- Kd (HLA-A*26:01; [6]): 2370 nM

Sequence: ENPYRTWAYH
- Kd (HLA-A*26:01; [5]): ≥ 69700 nM

Sequence: ERPAFGIQK
- Kd (HLA-A*11:01 [1]; source organism: Homo sapiens): 17500 nM

Sequence: ESEMIIPKNF
- Kd (HLA-A*01:01; [12]): ≥ 70400 nM
- Kd (HLA-A*26:01; [12]): ≥ 69700 nM

Sequence: ETLMLLALIA
- Kd (HLA-A*26:01; [11]): ≥ 33600 nM

Sequence: ETPHLMGWDY
- Kd (HLA-A*01:01; [7]): 301 nM
- Kd (HLA-A*24:02; [7]): ≥ 70300 nM
- Kd (HLA-A*29:02; [7]): 92.7 nM
- Kd (HLA-A*23:01; [7]): ≥ 70000 nM
- Kd (HLA-A*26:01; [7]): 4.91 nM
- Kd (HLA-A*30:02; [7]): 696 nM

Sequence: EYPIIGDEL
- Kd (HLA-A*01:01; [7]): ≥ 78100 nM
- Kd (HLA-A*24:02; [7]): 14100 nM
- Kd (HLA-A*29:02; [7]): 176 nM
- Kd (HLA-A*23:01; [7]): 16200 nM
- Kd (HLA-A*26:01; [7]): ≥ 77900 nM
- Kd (HLA-A*30:02; [7]): 1330 nM

Sequence: FFAFGHMIK
- Kd (HLA-A*03:01 [2]; source organism: Cryptosporidium parvum): ≥ 20000 nM

Sequence: FSCGLSLQDY
- Kd (HLA-A*03:01 [3]): 977 nM
- Kd (HLA-A*11:01 [4]): 269 nM
- Kd (HLA-A*29:02; [13]): ≥ 71400 nM
- Kd (HLA-A*31:01): 2310 nM
- Kd (HLA-A*33:01): 9250 nM
- Kd (HLA-A*68:01): 263 nM

Sequence: FTDPSSVAA
- Kd (HLA-A*01:01; [5]): 1.71 nM
- Kd (HLA-A*02:06; [5]): 59.4 nM

Sequence: GTFLCANEY
- Kd (HLA-A*01:01; [7]): 97.4 nM
- Kd (HLA-A*24:02; [7]): 11400 nM
- Kd (HLA-A*29:02; [7]): 3.83 nM
- Kd (HLA-A*23:01; [7]): ≥ 36400 nM
- Kd (HLA-A*26:01; [7]): 262 nM
- Kd (HLA-A*30:02; [7]): 0.406 nM

Sequence: GVGAPTTTY
- Kd (HLA-A*03:01 [2]; [14]): 7450 nM
- Kd (HLA-A*11:01 [1]; [14]): 10100 nM
- Kd (HLA-B*15:01): 120 nM

Sequence: GYRFFNKTL
- Kd (HLA-A*24:02; [15]): 1190 nM
- Kd (HLA-A*29:02; [15]): 3590 nM
- Kd (HLA-A*23:01; [15]): 210 nM

Sequence: HFFMKHPNK
- Kd (HLA-A*03:01 [2]; source organism: Coxiella burnetii): 218 nM

Sequence: HTLSIHDGY
- Kd (HLA-A*01:01; [7]): 1500 nM
- Kd (HLA-A*24:02; [7]): ≥ 77600 nM
- Kd (HLA-A*29:02; [7]): 1.79 nM
- Kd (HLA-A*23:01; [7]): ≥ 77800 nM
- Kd (HLA-A*26:01; [7]): 16 nM
- Kd (HLA-A*30:02; [7]): 0.411 nM

Sequence: HYLCLNCLT
- Kd (HLA-A*01:01; [16]): 6910 nM
- Kd (HLA-A*26:01; [16]): ≥ 77900 nM
- Kd (HLA-A*30:02; [16]): 3020 nM

Sequence: IGKMFESTY
- Kd (HLA-A*30:02; source organism: Dengue virus 4 Dominica/814669/1981): 338 nM

Sequence: IKYTDRKWCF
- Kd (HLA-A*24:02; [6]): 2370 nM

Sequence: IPLTEEAEL
- Kd (HLA-B*07:02): 5310 nM

Sequence: ITLTAALLLL
- Kd (HLA-A*01:01; [12]): 5940 nM
- Kd (HLA-A*02:06; [12]): 27.4 nM

Sequence: IVNNQESNKY
- Kd (HLA-A*03:01 [3]): 487 nM
- Kd (HLA-A*11:01 [4]): 1650 nM
- Kd (HLA-A*29:02; [13]): ≥ 32600 nM
- Kd (HLA-A*31:01): ≥ 52900 nM
- Kd (HLA-A*33:01): ≥ 70000 nM
- Kd (HLA-A*68:01): 7540 nM
